According to patent US20140087426:

Legend:
Experiment in all cases: cell_activity
[1] = test system: spexin TALEN right (synthetic (Xanthomonas TALE)); conditions: 33/36, as pair
[2] = test system: tnikb TALEN right (synthetic (Xanthomonas TALE)); conditions: 18/39, as pair
[3] = test system: kiss2 TALEN right (synthetic (Xanthomonas TALE)); conditions: 69/69, as pair
[4] = test system: miR-214 TALEN right (synthetic (Xanthomonas TALE)); conditions: 25/47, as pair
[5] = test system: miR-451 TALEN right (synthetic (Xanthomonas TALE)); conditions: 2/47, as pair, 22-bp spacer
[6] = test system: kiss1 TALEN right (synthetic (Xanthomonas TALE)); conditions: 32/40, as pair
[7] = test system: gria3a TALEN right (synthetic (Xanthomonas TALE)); conditions: 49/55, as pair, zebrafish embryos
[8] = test system: kiss2r TALEN right (synthetic (Xanthomonas TALE)); conditions: 3/45, as pair, 21-bp spacer
[9] = test system: kiss1r TALEN right (synthetic (Xanthomonas TALE)); conditions: 22/43, as pair
[10] = test system: miR-1-1 TALEN right (synthetic (Xanthomonas TALE)); conditions: 64/66, as pair
[11] = test system: miR-1-2 TALEN right (synthetic (Xanthomonas TALE)); conditions: 34/41, as pair
[12] = test system: gnrh3 TALEN right (synthetic (Xanthomonas TALE)); conditions: 6/33, as pair, 21-bp spacer
[13] = test system: kiss2r TALEN left (synthetic (Xanthomonas TALE)); conditions: 3/45, as pair, 21-bp spacer
[14] = test system: kiss1 TALEN left (synthetic (Xanthomonas TALE)); conditions: 32/40, as pair
[15] = test system: miR-1-1 TALEN left (synthetic (Xanthomonas TALE)); conditions: 64/66, as pair
[16] = test system: miR-1-2 TALEN left (synthetic (Xanthomonas TALE)); conditions: 34/41, as pair
[17] = test system: miR-451 TALEN left (synthetic (Xanthomonas TALE)); conditions: 2/47, as pair, 22-bp spacer
[18] = test system: gria3a TALEN left C1A (synthetic (Xanthomonas TALE)); conditions: mean of 3
[19] = test system: gria3a TALEN left -A7 (synthetic (Xanthomonas TALE)); conditions: mean of 3, nearly abolished
[20] = test system: gria3a TALEN left A7C (synthetic (Xanthomonas TALE)); conditions: mean of 3
[21] = test system: gria3a TALEN left -C1 (synthetic (Xanthomonas TALE)); conditions: mean of 3
[22] = test system: gria3a TALEN left G2A (synthetic (Xanthomonas TALE)); conditions: mean of 3
[23] = test system: gria3a TALEN left T15A (synthetic (Xanthomonas TALE)); conditions: mean of 3
[24] = test system: gria3a TALEN left CLRA (synthetic (Xanthomonas TALE)); conditions: mean of 3
[25] = test system: gria3a TALEN left (synthetic (Xanthomonas TALE)); conditions: mean of 3; with right TALEN, zebrafish embryos; Table 4: 49/55
[26] = test system: gria3a TALEN left T15G (synthetic (Xanthomonas TALE)); conditions: mean of 3
[27] = test system: gria3a TALEN left CLRG (synthetic (Xanthomonas TALE)); conditions: mean of 3
[28] = test system: gria3a TALEN left T8C (synthetic (Xanthomonas TALE)); conditions: mean of 3
[29] = test system: gria3a TALEN left A7G (synthetic (Xanthomonas TALE)); conditions: mean of 3
[30] = test system: gria3a TALEN left -G2 (synthetic (Xanthomonas TALE)); conditions: mean of 3, nearly abolished
[31] = test system: gria3a TALEN left -T8 (synthetic (Xanthomonas TALE)); conditions: 0/64 in 3
[32] = test system: gria3a TALEN left G2C (synthetic (Xanthomonas TALE)); conditions: mean of 3
[33] = test system: gria3a TALEN left T15C (synthetic (Xanthomonas TALE)); conditions: mean of 3
[34] = test system: gria3a TALEN left T8G (synthetic (Xanthomonas TALE)); conditions: mean of 3
[35] = test system: gria3a TALEN left G2T (synthetic (Xanthomonas TALE)); conditions: mean of 3
[36] = test system: gria3a TALEN left A7T (synthetic (Xanthomonas TALE)); conditions: mean of 3
[37] = test system: gria3a TALEN left C1G (synthetic (Xanthomonas TALE)); conditions: mean of 3
[38] = test system: gria3a TALEN left CLRT (synthetic (Xanthomonas TALE)); conditions: mean of 3
[39] = test system: gria3a TALEN left -T15 (synthetic (Xanthomonas TALE)); conditions: mean of 3
[40] = test system: gria3a TALEN left T8A (synthetic (Xanthomonas TALE)); conditions: 0/32 in 3
[41] = test system: gria3a TALEN left C1T (synthetic (Xanthomonas TALE)); conditions: mean of 3
[42] = test system: kiss2 TALEN left (synthetic (Xanthomonas TALE)); conditions: 69/69, as pair
[43] = test system: miR-214 TALEN left (synthetic (Xanthomonas TALE)); conditions: 25/47, as pair
[44] = test system: tnikb TALEN left (synthetic (Xanthomonas TALE)); conditions: 18/39, as pair
[45] = test system: gnrh3 TALEN left (synthetic (Xanthomonas TALE)); conditions: 6/33, as pair, 21-bp spacer
[46] = test system: kiss1r TALEN left (synthetic (Xanthomonas TALE)); conditions: 22/43, as pair
[47] = test system: spexin TALEN left (synthetic (Xanthomonas TALE)); conditions: 33/36, as pair

“AATGTCATGCAATGTTA (double strand) [spexin right site]” was tested, and the activity (% mutant alleles) [1] was 91.7.
Work on “ATTTTTGAGCTGGTGGA (double strand) [tnikb right site]” yielded an activity (% mutant alleles) [2] of 46.2.
Work on “CAGCTATGAGAGCAATA (double strand) [kiss2 right site]” yielded an activity (% mutant alleles) [3] of 100.
“CAGGCAGACAGATGGCA (double strand) [miR-214 right site]” gave an activity (% mutant alleles) [4] of 53.2.
Work on “CTGAGTTTAGTAATGGA (double strand) [miR-451 right site]” yielded an activity (% mutant alleles) [5] of 4.3.
Work on “CTTAGAAGGTAAGTTCA (double strand) [kiss1 right site]” yielded an activity (% mutant alleles) [6] of 80.
“GAGTTTCTGCTCTTTA (double strand) [gria3a right site]” showed an activity (% mutant alleles) [7] of 89.1.
In the case of “GATGAAGACGGTTACAAA (double strand) [kiss2r right site]”, the activity (% mutant alleles) [8] is reported as 6.7.
“GTAATAATAGAACCTCA (double strand) [kiss1r right site]” showed an activity (% mutant alleles) [9] of 51.2.
“GTATGTATCCCAGGTGA (double strand) [miR-1-1 right site]” gave an activity (% mutant alleles) [10] of 97.
“GTATGTATTCTTGGTCA (double strand) [miR-1-2 right site]” showed an activity (% mutant alleles) [11] of 82.9.
“GTCCAGTTGTTGCTGTTA (double strand) [gnrh3 right site]” was tested, and the activity (% mutant alleles) [12] was 18.2.
“TAACCTAATAGTCATCTA (double strand) [kiss2r left site]” gave an activity (% mutant alleles) [13] of 6.7.
“TACACACAAACCCCTCT (double strand) [kiss1 left site]” gave an activity (% mutant alleles) [14] of 80.
“TATGAACAAGAGCAGC (double strand) [miR-1-1 left site]” was tested, and the activity (% mutant alleles) [15] was 97.
“TATGAACATATAAAAGC (double strand) [miR-1-2 left site]” gave an activity (% mutant alleles) [16] of 82.9.
“TCGCTGTGACAGAGAGA (double strand) [miR-451 left site]” gave an activity (% mutant alleles) [17] of 4.3.
With “TCGTCCAATAGCTTCTC (double strand) [gria3a left site]” the activity (% mutant alleles) [18] was 33.3, the activity (% mutant alleles) [19] was 0.5 and the activity (% mutant alleles) [20] was 40.1. For the same sequence, the activity (% mutant alleles) [21] was 30.7, the activity (% mutant alleles) [22] was 17.9 and the activity (% mutant alleles) [23] was 20.8. For the same sequence, the activity (% mutant alleles) [24] was 76, the activity (% mutant alleles) [25] was 84.2 and the activity (% mutant alleles) [26] was 65.6. For the same sequence, the activity (% mutant alleles) [27] was 2.2, the activity (% mutant alleles) [28] was 21.9 and the activity (% mutant alleles) [29] was 82.3. The activity (% mutant alleles) [30] was 1.6, the activity (% mutant alleles) [31] was 0 and the activity (% mutant alleles) [32] was 12.1. It also gave an activity (% mutant alleles) [33] of 3.1, an activity (% mutant alleles) [34] of 14.6 and an activity (% mutant alleles) [35] of 52.6. For the same sequence, the activity (% mutant alleles) [36] was 71.9, the activity (% mutant alleles) [37] was 79.2 and the activity (% mutant alleles) [38] was 63.1. It also gave an activity (% mutant alleles) [39] of 71.9, an activity (% mutant alleles) [40] of 0 and an activity (% mutant alleles) [41] of 2.1.
“TGATTCTCTTCATGTCTG (double strand) [kiss2 left site]” gave an activity (% mutant alleles) [42] of 100.
Sequence “TGCAGAACTTCCTGCAC (double strand) [miR-214 left site]” has an activity (% mutant alleles) [43] of 53.2.
Work on “TGTTATTTTCTCCCCT (double strand) [tnikb left site]” yielded an activity (% mutant alleles) [44] of 46.2.
“TGTTTTAGTTTTAGCATG (double strand) [gnrh3 left site]” was tested, and the activity (% mutant alleles) [45] was 18.2.
“TTCATGTGCAAATTTGT (double strand) [kiss1r left site]” gave an activity (% mutant alleles) [46] of 51.2.
Work on “TTTGTGTCCCATTCCT (double strand) [spexin left site]” yielded an activity (% mutant alleles) [47] of 91.7.
